Here are results for two molecules from article PMC4837482, “The complex binding mode of the peptide hormone H2 relaxin to its receptor RXFP1” (Nature Communications, 2016).

The target of experiment [1] is RXFP1 N43A, full length (human). The experiment in a line: europium-labelled ligand saturation binding on cells (time-resolved fluorescence); HEK293T cells transiently transfected with receptor, 96-well plates; increasing Eu-H2 relaxin (maximum 15 nM) with or without 1 μM unlabelled H2 relaxin, 1 h, room temperature; 20 mM HEPES pH 7.5, […] CaCl2, 50 mM NaCl, 0.01% NaN3, 1% BSA; one-site fit.

Experiment [2] addresses RXFP1 T61A, full length (human). The description is as above.
Experiment [3] concerns the target RXFP1 D42A, full length (human). The description is as above.
In experiment [4] the target is RXFP1 G45A, full length (human). The description is as above.
Experiment [5] concerns the target RXFP1 F50A, full length (human). The experiment is described as above.
Experiment [6] deals with RXFP1 C40A^ins, full length (human). Described as above.
For experiment [7], the target named is RXFP1 M60A, full length (human). The experiment is described as above.
Experiment [8] addresses RXFP1 F50A^ins, full length (human). The description is as above.
Experiment [9] deals with T1, RXFP1 G45A/W46A, full length (human).
T1 chain: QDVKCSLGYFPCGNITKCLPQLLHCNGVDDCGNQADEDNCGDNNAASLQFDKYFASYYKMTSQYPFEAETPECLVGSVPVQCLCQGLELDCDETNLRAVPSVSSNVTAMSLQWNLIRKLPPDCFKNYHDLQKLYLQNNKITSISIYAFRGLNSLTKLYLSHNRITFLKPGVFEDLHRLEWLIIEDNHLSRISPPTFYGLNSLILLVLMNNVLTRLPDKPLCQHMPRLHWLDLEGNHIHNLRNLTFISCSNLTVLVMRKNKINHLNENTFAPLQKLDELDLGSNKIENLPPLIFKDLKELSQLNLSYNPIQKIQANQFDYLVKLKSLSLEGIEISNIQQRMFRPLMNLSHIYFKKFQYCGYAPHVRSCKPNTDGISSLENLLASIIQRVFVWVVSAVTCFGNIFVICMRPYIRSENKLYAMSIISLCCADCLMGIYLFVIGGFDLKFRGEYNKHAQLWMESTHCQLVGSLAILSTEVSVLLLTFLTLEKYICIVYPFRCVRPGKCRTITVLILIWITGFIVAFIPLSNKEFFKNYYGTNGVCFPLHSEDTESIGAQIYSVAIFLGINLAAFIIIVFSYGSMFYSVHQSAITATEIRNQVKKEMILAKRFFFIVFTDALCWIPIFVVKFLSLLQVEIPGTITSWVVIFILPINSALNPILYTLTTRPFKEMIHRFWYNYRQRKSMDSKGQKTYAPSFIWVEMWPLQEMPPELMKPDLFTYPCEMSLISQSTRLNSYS
The experiment can be described thus: cell-based or functional assay.

The target in experiment [10] is T2, RXFP1 G41A/D42A, full length (human).
T2 chain: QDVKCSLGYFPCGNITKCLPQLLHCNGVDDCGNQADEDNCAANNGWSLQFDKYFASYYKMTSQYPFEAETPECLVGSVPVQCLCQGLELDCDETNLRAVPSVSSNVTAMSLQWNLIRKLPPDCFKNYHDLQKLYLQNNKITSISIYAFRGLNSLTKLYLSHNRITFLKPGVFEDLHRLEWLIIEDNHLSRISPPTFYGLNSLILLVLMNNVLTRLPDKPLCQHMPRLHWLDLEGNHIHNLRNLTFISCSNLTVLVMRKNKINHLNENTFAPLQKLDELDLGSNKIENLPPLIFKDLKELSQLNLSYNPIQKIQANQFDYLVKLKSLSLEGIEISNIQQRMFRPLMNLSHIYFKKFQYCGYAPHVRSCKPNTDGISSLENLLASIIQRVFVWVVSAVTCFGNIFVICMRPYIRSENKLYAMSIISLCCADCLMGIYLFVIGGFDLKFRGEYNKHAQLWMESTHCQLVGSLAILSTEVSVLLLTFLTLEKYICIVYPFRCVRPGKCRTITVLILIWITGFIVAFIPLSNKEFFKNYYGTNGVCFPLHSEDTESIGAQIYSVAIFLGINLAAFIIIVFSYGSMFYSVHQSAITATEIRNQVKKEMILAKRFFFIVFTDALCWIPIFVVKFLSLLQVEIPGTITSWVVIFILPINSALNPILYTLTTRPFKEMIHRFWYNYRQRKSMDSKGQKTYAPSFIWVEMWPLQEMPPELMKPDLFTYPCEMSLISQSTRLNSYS
The experiment can be described thus: cell-based or functional assay.

Where no end group is shown, it is not given here. The star is where a group is joined. DTPA = O=C(O)CN(CCN(CC(=O)O)CC(=O)O)CCN(CC(=O)O)CC(=O)* Bounds are passed on as bounds.

B1: Europium-labelled H2 relaxin (ligand, human)
chain 1: {DTPA}-QLYSALANKCCHVGCTKRSLARFC
chain 2: DSWMEEVIKLCGRELVRAQIAICGMSTWS
modifications: not fully specified; ends and bridges not checked; also: DTPA cage loaded with Eu^3+
notes: A chain of human gene-2 (H2) relaxin; numbers count on: the A chain; B chain of human gene-2 (H2) relaxin; numbers count on: the B chain; also called Eu-H2 relaxin; Eu-H2
For the molecule B1, the equilibrium dissociation constant (Kd) (commonly the equilibrium constant for the complex coming apart) in experiment [1] stood at 2.55 nM; in [2] it was 0.69 nM; in experiment [3], 20.7 nM; in [4], 19.1 nM; in [5], 6.48 nM; in experiment [6] it was 3.92 nM. Further, the Kd was 1.08 nM in [7] and 16.7 nM in experiment [8].

B2: H2 relaxin (ligand, human)
chain 1: QLYSALANKCCHVGCTKRSLARFC
chain 2: DSWMEEVIKLCGRELVRAQIAICGMSTWS
Consider B2, for which the “H2 relaxin-induced cAMP response (pCRE β-galactosidase reporter, HEK293T), pEC50” value in [9] was less than 6 pEC50; in experiment [10] it was 7.26 pEC50.
